Consider one protein from publication PMC9712121 (Nature, 2022).

The data set deals with the molecule itself. Put plainly: negative-stain EM; TNKS2 SAM at 104 μM on carbon, 2% uranyl acetate; 3D refinement with D1 symmetry, projections compared with the SAM–PARP model and PDB 5JRT.

B1: TNKS2 SAM (867–940), wild type (domain or fragment, human, UniProt Q9H2K2 867-940, looked up)
chain: EKKEVPGVDFSITQFVRNLGLEHLMDIFEREQITLDVLVEMGHKELKEIGINAYGHRHKLIKGVERLISGQQGL
notes: Tankyrase 2 (TNKS2), human, SAM domain, residues 867-940; also called SAM domain
Regarding B1, the binding result was “binds”.
